Key:
Experiment in all cases: BLI
Siglec-9 Fc-fusion = Siglec-9 Fc-fusion (UniProt Q9Y336 18-348)
Siglec-10 Fc-fusion = target: T1, Siglec-10 Fc-fusion (UniProt Q96LC7 17-550)
T1 chain: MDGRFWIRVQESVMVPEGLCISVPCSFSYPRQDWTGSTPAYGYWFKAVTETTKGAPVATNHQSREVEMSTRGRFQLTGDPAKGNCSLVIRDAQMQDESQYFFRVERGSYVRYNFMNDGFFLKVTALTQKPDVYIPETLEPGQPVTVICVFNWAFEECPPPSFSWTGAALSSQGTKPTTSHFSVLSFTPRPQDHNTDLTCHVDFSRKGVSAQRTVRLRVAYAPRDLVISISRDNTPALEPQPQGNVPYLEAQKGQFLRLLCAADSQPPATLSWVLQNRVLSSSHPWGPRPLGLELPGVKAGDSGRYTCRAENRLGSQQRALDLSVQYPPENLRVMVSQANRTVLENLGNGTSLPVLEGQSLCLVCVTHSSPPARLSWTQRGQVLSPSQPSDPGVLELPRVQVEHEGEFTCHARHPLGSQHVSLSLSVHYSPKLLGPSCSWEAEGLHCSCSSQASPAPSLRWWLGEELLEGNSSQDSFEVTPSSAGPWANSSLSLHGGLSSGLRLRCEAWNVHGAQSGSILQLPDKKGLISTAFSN

Siglec-14 Fc-fusion = target: T2, Siglec-14 Fc-fusion (UniProt Q08ET2 17-358)
T2 chain: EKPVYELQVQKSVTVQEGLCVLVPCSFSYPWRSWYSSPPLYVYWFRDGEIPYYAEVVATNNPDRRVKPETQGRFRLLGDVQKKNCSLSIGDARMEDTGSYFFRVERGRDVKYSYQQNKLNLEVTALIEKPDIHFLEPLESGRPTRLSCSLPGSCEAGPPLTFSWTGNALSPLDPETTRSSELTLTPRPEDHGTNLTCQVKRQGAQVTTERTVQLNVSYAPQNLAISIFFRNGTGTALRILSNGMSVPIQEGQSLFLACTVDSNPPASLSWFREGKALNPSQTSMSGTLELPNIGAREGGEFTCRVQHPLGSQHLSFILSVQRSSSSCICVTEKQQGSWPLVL

Chain of Siglec-9 Fc-fusion (Q9Y336 18-348): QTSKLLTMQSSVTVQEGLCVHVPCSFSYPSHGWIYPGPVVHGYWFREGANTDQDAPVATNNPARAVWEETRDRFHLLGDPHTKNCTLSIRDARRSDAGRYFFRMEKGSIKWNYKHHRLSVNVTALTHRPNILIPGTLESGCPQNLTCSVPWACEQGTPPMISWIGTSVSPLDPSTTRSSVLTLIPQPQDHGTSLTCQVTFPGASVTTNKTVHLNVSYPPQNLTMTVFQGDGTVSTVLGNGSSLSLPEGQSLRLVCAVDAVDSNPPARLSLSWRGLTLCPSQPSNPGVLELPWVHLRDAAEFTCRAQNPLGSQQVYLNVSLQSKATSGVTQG

Kd (Siglec-9 Fc-fusion): 4.2 µM | Kd (Siglec-10 Fc-fusion): 760 nM | Kd (Siglec-14 Fc-fusion): 1100 nM
B1: extracellular domain of PTGFRN (aa 26-832) with a C-terminal histidine tag (domain or fragment)
chain: VPTATLVRVVGTELVIPCNVSDYDGPSEQNFDWSFSSLGSSFVELASTWEVGFPAQLYQERLQRGEILLRRTANDAVELHIKNVQPSDQGHYKCSTPSTDATVQGNYEDTVQVKVLADSLHVGPSARPPPSLSLREGEPFELRCTAASASPLHTHLALLWEVHRGPARRSVLALTHEGRFHPGLGYEQRYHSGDVRLDTVGSDAYRLSVSRALSADQGSYRCIVSEWIAEQGNWQEIQEKAVEVATVVIQPSVLRAAVPKNVSVAEGKELDLTCNITTDRADDVRPEVTWSFSRMPDSTLPGSRVLARLDRDSLVHSSPHVALSHVDARSYHLLVRDVSKENSGYYYCHVSLWAPGHNRSWHKVAEAVSSPAGVGVTWLEPDYQVYLNASKVPGFADDPTELACRVVDTKSGEANVRFTVSWYYRMNRRSDNVVTSELLAVMDGDWTLKYGERSKQRAQDGDFIFSKEHTDTFNFRIQRTTEEDRGNYYCVVSAWTKQRNNSWVKSKDVFSKPVNIFWALEDSVLVVKARQPKPFFAAGNTFEMTCKVSSKNIKSPRYSVLIMAEKPVGDLSSPNETKYIISLDQDSVVKLENWTDASRVDGVVLEKVQEDEFRYRMYQTQVSDAGLYRCMVTAWSPVRGSLWREAATSLSNPIEIDFQTSGPIFNASVHSDTPSVIRGDLIKLFCIITVEGAALDPDDMAFDVSWFAVHSFGLDKAPVLLSSLDRKGIVTTSRRDWKSDLSLERVSVLEFLLQVHGSEDQDFGNYYCSVTPWVKSPTGSWQKEAEIHSKPVFITVKMDVLNAFKYP
